In a protein production outcome set (Wang et al. 2014) one finds protein production data, which are given here for 21 sequences.
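Further: failed if final PepcDB status was selected cloned or expressed and not failed if soluble or beyond.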

This series is described as follows: label from the status in PepcDB records.
As to “MSAQDTQSLGVWSDCLTLLRLELLRAVPKSAVGLGCGKKIHANGILDEIFFPLDISIASAYVKTKMNFNPPTLQHLAGRSLMKDEALAISALQDLPMQLFPPLFKDAFTSKQSNILKQMVAAWPFPCLPVGGLMETPPHLETLKAVLDGLDLLMKQKVRLRMWKLQVLDLRDAHHDFWKGYTGIQDLVSSLDVIGKTQPVGNHPIIGGKQVMTVLMNLSFTSRHPSKYIKYLCHWAKQRKNVIQVICQKLEFGAIPAYDSLNVLGVFDLGSIQELEINKCWDMCTLALLAPGLGQMKNLQKLLLKEICITVDWPWDQKTEGLCVKQIFFQFSKLRNLQHLYLNDVYFLNEHLDQVLRCLESPLETLAITHCMLSQSDMKYLSQCPSIHQLKHLDLSGVTFINLSHPFLRSLLERVTATLKTLKLNGCMIMDFQIRALLPVLSQCSQLTEVNFEENSLSMDSLKKLLQHTANLTHLTLEKYPAPDEVYDDTGNVIPHRFIQLCSELMDTLKILRQPNHVYFVSKKCLDCHKYFIYNLEAMLCSCWQ”, the protein production result was “failed”.
The value for “MSASHFLTIIKPASLAVLLLLAAGFWVLHGFIMPIAWAVVLAFTVWPWYEHVYQRAPCWMRGGWLPLAMTLLMMVLLMVPATFGVLVLGHEVQMLHRLLIKVQSSGIGAPDWLIQLPWVGGWIKETWSETFGNPETIKNALNALGMGTVFSYTRDLAAQVLHRFMSGFVTLLALFFIFRDGHGLGRQILDRSVRLFGSAGARYARHAVTAVRGTVNGMLLVGIGKGVVLGLGYWAVGLSQPVLLGTLTAVVALVPFAAKLVFGAASIYLIVQGHAMAGIVLVVYGFIITLIADNYVRPTLIGGAANIPFLPTLLGIFGGVEAMGFVGLFIGPTVMAILISLWRDWNDETRLPSA” was “failed”.
The value for “MSATGIKRSNLNTRPVQRDASAKQTAIKGPYGKSPGCTTSCGLRLPRKTEVTAAKLIKHLGCKFAKGLRLVVMRKKKRSPPSKVSSFSGRSQPPIIPINNDSHRSEAIEDCIQFINSSSSFTRSNSTS” was “failed”.
The value for “MSATRHRSDGHEEIVALDALPLSAAIRRRELSCREVMQAYLAQIERFNPRVNAIVSLQAESRLLTQADERDRQLARGEWLGWMHGMPQAIKDLAATSGIPTTLGSPLFAGQVPEHDAIVVERVKSSGAIVIGKTNVPEFGLGSQTYNPLFGTTRNAYDPARIAGGSSGGAAVALALRMLPVADGSDMMGSLRNPAAYNNVYGFRPSQGRVPHGPQAELFVQQLATEGPMGRSVADLARLLATQAGYDPRCPLSLRDDPRRFADDLGRDFRGARLGWLGDYAGYLPMEEGVLELCEAALGDFAELGCDVEACLPDYPLERLWRTWLVHRQWLVQGSLGELYADPARRVRLKPEAQWEVESGLGLGAAEVYRASLDRSDWYRALARLFERYDFLLLPSAQVFPFDAETAWPRQVAGRPMDTYHRWMEVVIGPTLAGLPAISVPIGFGAAGLPMGLQIIGPAQADLAVLQLAHAHEGLTRWVSRRPPAMLEAPGGI” was “failed”; that for “MSAVMARRIAVVGGGVAGLMAAWWASNYGYDVVVYEADLSSLTATRVSAGIIDPTIDISLAPVALETLSLLKRLGLGLESRLLWLHERGSCRRLERLLSDKGIIERSVAGEESIRLGRYTVNLGYGEELHVINTIIVDTGEFYSLASSASNVDIVEDSVEYVGCGSVGLKRGGSREFDAIIVAAGPWTGFISGLQALSNMLRVYRCEALIIRAGGGPFAVVDDILDFYLSIHASGDGVLGNGCCVEIASPLDGYRYSGDVLDAVISRSIERLEGLGEAELITPVSAPCVVGRDARPVLGMLPGCSRVYLLAGLDGVGVTLAPVLARLVVESIATGSQEPIPPEMAASRPTSSSESVVKEPVEEC” was “failed”.
“MSCYSDSITPDSFSGIVFALEGVSRSIVLINGPSGCKYYHSAVSDNQTLRQYEFDPFNYSEKWYFGQPRVPCTYLDSDDYIYGSTDKLTEALEFLRDNAPFDLLCIVNSPGAALIGDDLRGIAGRIIKEKSVVIIETPDFSRDICTGYETAAAALLDSLPLNSAARSQPNTVNILGLSIFHKYFAGDILELRRLLELCGVTVNCFLCADCDIDTIRRIPEAALNIVIHPEYGMKTARCLKERYGTPFYLCDGPPIGFSATEKFIGGICTALGCDSSLFRRESERARARAYAYISQVNSLTGLPKGVHFAVEGTYSELYAYTSFLVRYFGMIPEALSVLNEGSDCCKERLQALLNGLALPQALDRDLTETDSELVFASGNTIAKLKLRRHMFSGIEISLPSLGYIDVIPKTHIGLQGALMLTEQVLNGLAF”: the protein production entry was “failed”.
For “MSDAQKFQLGTIGALSLSVVSSVSIVICNKALISTLGFTFATTLTSWHLLVTFCSLHVALWMKFFEHKPFDPRAVLGFGVLNVNFSTFLVIGKTSPVTYQVLGHLKTCLVLAFGYLLLKDAFSWRNILGILVAVIGMVLYSYYCTLETQQKATETSTQLPQMDENEKDPLVSAENGSGLISDNGVQKQDPVWNSNKDFQA” the value was “failed”; for “MSDCSFIIVGGGGHARVVASTLRRLGETILGFTDPDEEATLGDGIEHLGRDKILTEKDPSKVALTMGMGSVRDTGHRAGLFTEQVENGFRFPTLIHPDAVLASEAKTKAGVQVMAGGVIQPGASLGENVIVNTNASVDHDCQIGAHSHVASGATLSGEVVLESQVHVGTGASIIQGVDVGKNSVVGAGAVVIEDVPPETVVIGVPAHPK”, “failed”; for “MSDDPEDRMLGWDESVFRDEHVFEIDWLPETFKHRDTQMETLKYALRPAVRGSRPLNVIARGPPGTGKTTAVQILFDELTAQTDVKTVRVNCQMDSTRYAVFSRLFAEIFDYEPPSSGISFKKLFSQITDKLVEEDEVLVVALDDVNYLFYESEASDTLYSLLRAHEAHSGAKIGVICVSSDLELDTIDALDTRVQSVFRPEEVYFNPYGQAEIADILGERADRGFNEGVVGPTVLDRVAELTEEQGGDLRVGIDLLRRAGMNAEMRASRSVETEDVEAAYDKSKYVHLSRRLRELSDSETALVEVIAAHDGQQAGDIYDAFSEQTDLGYTRYSEIINKLDQLDIIDADYTNVEGRGRSRELTLNYDADAVLERL”, “failed”.
The value for “MSDEGPGTGPGNGLGEKGDTSGPEGSGGSGPQRRGGDNHGRGRGRGRGRGGGRPGAPGGSGSGPRHRDGVRRPQKRPSCIGCKGTHGGTGAGAGAGGAGAGGGGRGRGGSGGRGRGGSGGRRGRGRERARGGSRERARGRGRGRGEKRPRSPSSQSSSSGSPPRRPPPGRRPFFHPVGEADYFEYHQEGGPDGEPDVPPGAIEQGPADDPGEGPSTGPRGQGDGGRRKKGGWFGKHRGQGGSNPKFENIAEGLRALLARSHVERTTDEGTWVAGVFVYGGSKTSLYNLRRGTALAIPQCRLTPLSRLPFGMAPGPGPQPGPLRESIVCYFMVFLQTHIFAEVLKDAIKDLVMTKPAPTCNIRVTVCSFDDGVDLPPWFPPMVEGAAAEGDDGDDGDEGGDGDEGEEGQELEHHHHHH” was “failed”.
Take “MSDEHRFSRLRPLSLGLLAPLAVLLTGCGGPNLIERLSIGNWGFWGTVIIVLDLVALVDLLGDGTRSTTSTVVWALLIVFAPVLGVILYFIFGRE”: the protein production result is “failed”.
With “MSDFLQTTHLIIILCFLQQFLCTRMDIVIWLTCTTVPLSRRGRIGLGGSVILHVSDIHCSLRRLEDIISSLPVKPSTVAATGDFECEKAAVAIVEWSRREGVPLVAVTGNLDHAGVRRVLRSAGVLMDGRVDRVGGLVFGGVGGMDPRTSMEMLLRSLESSGLTVDVLLTHHPPHGVLDTTFAGVRAGLHDLRSLVDSLKPRAHLFGHIHESPGIESIGGTVFVNPGPAYEGRYALVRILGSVVKAELYTA”, the protein production entry is recorded as “failed”.
“MSDFSNELHTQIQYSLIEKLSESERRYRELVDSLREIVFKCDRLGNLNFLNRAWTNTLGYGITDAIGSALSNFIDLDDQYLWSETLEKLQTGVEVCQKLRFYHQTGAIVWLELSAQPQSETEFSGSLINITDVYDELRLRKHAEGLLKQTNEELEARVEQRNIELIQANHDLKVTLDKLKYTQAQLVQTEKMSSLGQLVAGIAHEINNPVNFI”: the protein production entry was “failed”.
For “MSDIESLGEAAGLFEEPEDFLPPPPKPHFAEYQRSHITKESKSDVKDIKLRLVGTSPLWGHLLWNAGIYTANHLDSHPELIKGKTVLELGAAAALPSVICALNGAQMVVSTDYPDPDLMQNIDYNIKSNVPEDFNNVSTEGYIWGNDYSPLLAHIEKIGNNNGKFDLIILSDLVFNHTEHHKLLQTTKDLLAEKGQALVVFSPHRPKLLEKDLEFFELAKNEFHLVPQLIEMVNWKPMFDEDEETIEVRSRVYAYYLTHEK”, the protein production result was “failed”.
For “MSDIISIKDIDLAKKKVFIRCDFNVPQDDFLNITDDRRIRSAIPTIRYCLDNGCSVILASHLGRPKEISSKYSLEPVAKRLARLLDKEIVMAKDVIGEDAKTKAMNLKAGEILLLENLRFEKGETKNDENLAKELASMVQVYINDAFGVCHRAHSSVEAITKFFDEKHKGAGFLLQKEIDFASNLIKHPARPFVAVVGGSKVSGKLQALTNLLPKVDKLIIGGGMAFTFLKALGYDIGNSLLEEELLEEANKILTKGKNLGVKIYLPVDVVAAPACSQDVPMKFVPAQEIPNGWMGLDIGPASVRLFKEVISDAQTIWWNGPMGVFEIDKFSKGSIKMSHYISEGHATSVVGGGDTADVVARAGDADEMTFISTGGGASLELIEGKELPGVKALRSKENE” the value was “not failed”; for “MSDKGTDTKDKEKKAGKKKTASDRIEVRQSGVHGKGVYAIGQIAEGERVIEYKGEHISWKEALKRHPHDPNDPNHTFYFSLDDGDVIDAKFGGNRARWINHACDPNCEAREKKGRVFIHALRDIEPGEELFYDYGLVIDARYTKKLKQEYECRCGSPKCRGTMLAPKDKK”, “failed”; for “MSDLAMANPAPERTVMQHVRPLPYEADFTGFLSNTVAPRWMEALRIQRMRTCFPHFDSGAPQHLCIITETTVRYRKPVRYSDAIVGKAWLQSARYSRWIIAFSFAFEFSGLPAFEGRQAGTFIDPQTHLPLPIPASLRLPADH”, “failed”.
The value for “MSDLSQLIVAPILLPLITAAIMLLLGEKHRHIKARLNLLSTFSGLAIAACLLLWVRTQGQAASIGVYLPGNWPAPFGIVLVVDHLSALLLTLTGVIGFSALLFARARWDGAGASFHALFQIQLMGLYGAFLTADLFNLFVFFEVLLAASYGLLLHGSGRARVRAGLHYIAINLFASSLFLIGAAMLYGVTGTLNMADLALKIPLVPEADRGLLHAGAAILAMAFLVKAGIWPLNFWLVPAYASASAPVAALFAIMTKVGLYAVLRLWTLLFSGQAGASAHFGGEWLVYGGLVTLAVAAVSILAAQRLERMAALSILVSAGTLLGAVGFAQAALTGAALFYLVNSTLALCALFLLAELVERSRSANEAPLDEEEDAMPPPLESLHPPKGINLDDEQQVVIGQIIPWTMAFLGLSFIACALLIIGMPPLSGFVGKLNLISALFNPLGLGVPAEQPLSAAGWGLVALLILSGLASLIAFGRVGIQRFWKPEERPSPVLRRYECLPIVILLGLCLILSFKAEPLLRYTQDTAASLQAPDAYIKAVMAAQPIPGPTSRDVQVQP” was “failed”.
The value for “MSDLTFNKIAGGVLLTGLVIFGLREASSIVFSKPEVEKAGYEIAVQEESAGGAAVVESLPDWNAVLTPANVAAGQAVAAKCAACHKFDASNANGTGPGLWDVVGRKPAAHADFNYSTGMKEFAAKTPVWDYDHLYEFLKAPGKYVSGTNMTFVGLKKQEDRIAMIAYMHSLGSKLPVPPPRPVAAPAPAEGAAPAAEGAAPAAEGAAPAAAGAAPAAPAAAAPAAPKA” was “failed”.
Take “MSDLVKIRDVSLSTPYVSVIGKITGIHKKEYESDGTTKSVYQGYIEDDTARIRISSFGKQLQDSDVVRIDNARVAQFNGYLSLSVGDSSRIESVNVNIPLEHHHHHH”: the protein production result is listed as “not failed”.
As to “MSDLVSYHLDDGVATLTLNNGKVNAISPDVIIAFNAALDQAEKDRAIVIVTGQPGILSGGYDLKVMTSSAEAAINLVAQGSTLARRMLSHPFPIIVACPGHAVAKGAFLLLSADYRIGVAGPFSIGLNEVQIGMTMHHAGIELARDRLRKSAFNRSVINAEMFDPEGAMAAGFLDKVVSVEELQGAALAVAAQLKKINMNAHKKTKLKVRKGLLDTLDAAIEQDRQHML”, the protein production entry is “not failed”.
